Assay results reported in PMC3326351 (International Journal of Oncology, 2011).

Molecular target: the molecule itself
Assay: non-reducing SDS-PAGE and immunoblot

B1: His-tagged MUC1-C cytoplasmic domain (domain or fragment, human, UniProt P15941 1182-1255, looked up)
chain: AVCQCRRKNYGQLDIFPARDTYHPMSEYPTYHTHGRYVPPSSTDRSPYEKVSAGNGGSSLSYTNPAVAATSANL
  binding result: binds
